For one substance, stoichiometry N results are on record in publication PMC5398634.

The experiment concerns the target Erwinia amylovora AmyR (Erwinia amylovora strain CFBP1430). Description: crystal structure; native AmyR at 8 mg/ml, sitting-drop vapour diffusion, 0.1 M sodium cacodylate pH 6.9, 0.2 M magnesium chloride, 46% (v/v) PEG 200, 293 K; 1.95 Å, space group P 2(1)2(1)2; homodimer in the asymmetric unit.

The substance “Erwinia amylovora AmyR (natural protein)” showed a stoichiometry N of 2.

What is called stoichiometry N is the number of molecules, sites or subunits per partner or assembly.
